# Numbering of substitutions follows the chain as printed.
# B1: trispecific molecule (SEQ ID NO. 17) including Humabody ® 1 (bispecific antibody)
# chain: EVQLVESGGGVVQPGRSLRLSCAASGFSFSGYGMHWVRQAPGKGLEWVAYISYDGSNKYYADSVKGRFTISRDNSKNTLYLQMNSLRAEDTAVYYCAKDPAWGLRLGESSSYDFDIWGQGTMVTVSSGGGGSGGGGSGGGGSGGGGSGGGGSGGGGSEVQLVESGGGLVQPGGSLRLSCAASGFTLSNYWMNWVRQAPGKGLEWVANINQDGSERYYVDSVKGRFTISRDNAKNSLYLQMNSLRAEDTAVYYCARGGEGYGVDHYGLDVSGQGTTVTVSSGGGGSGGGGSGGGGSGGGGSGGGGSGGGGSEVQLVESGGGLVQPGRSLRLSCAASGFTFHHYAMHWVRQAPGKGLEWVSGISWNGNKITYADSVKGRFTISRDNAKNSLYLQMNSLRAEDTALYYCVRDSSLFIVGAPTFEHWGRGTLVTVSSGGGGSGGGGSGGGGSGGGGS
# notes: 1 at the C-terminal end; also called trivalent compound; trivalent construct
# B2: Variant of SEQ ID NO. 1 with E111→D and R115→Q (VHH)
# VHH: EVQLVESGGGLVQPGRSLRLSCAASGFTFHHYAMHWVRQAPGKGLEWVSGISWNGNKITYADSVKGRFTISRDNAKNSLYLQMNSLRAEDTALYYCVRDSSLFIVGAPTFDHWGQGTLVTVSS
# notes: Human single VH domain
# B3: Humabody ® 1 (SEQ ID NO. 1) (VHH)
# VHH: B2 VHH with D111E, Q115R
# notes: Human single VH domain antibody from transgenic mice, not camelid; also called Humabody ® 1 VH; Humabody ® 1-ctag
# Key:
# [1] = target: mouse serum albumin (MSA) (mouse, UniProt P07724 25-608); test: BLI (Octet RED384), albumin amine-coupled to AR2G biosensor
# Method: (§1) Binding studies with human, cyno and mouse serum albumin were carried out using the FortéBio OCTET RED384 instrument. Serum albumin (HSA, CSA, MSA) were coupled to AR2G biosensors by amine coupling using the amine reagent coupling kit (2nd generation, FortéBio). Briefly AR2G biosensors were rehydrated in water and then activated using EDC/sNHS reagents over 10 minutes. The activated biosensors were dipped into wells containing diluted serum albumin (HSA, CSA, MSA) to 10 ug/ml in 10 mM sodium acetate pH 5.0 for 10 minutes before free active sites were quenched using 1M Ethanolamine pH 8.5 over 10 minutes. These were then dipped into 10 mM glycine pH 2.5 to stabilise the surface. […] Anomalous or poorly fitting curves were excluded from the analysis.
# [2] = target: T1, Human Serum Albumin (HSA) (human, UniProt P02768 25-609); test: BLI (Octet RED384), albumin amine-coupled to AR2G biosensor, 1:1 model
# T1 construct: Recombinant HSA from Sigma A9731 is named only for immunisation
# Method: as §1
# Cyno Serum Albumin (CSA) [3] = target: T2, Cyno Serum Albumin (CSA) (cynomolgus, UniProt A2V9Z4 25-608); test: as above
# T2 construct: Bought protein; also called cynomolgus serum albumin
# Method: as §1
# [4] = target: T1, Human Serum Albumin (HSA); test: BIAcore (Affinity), pH5; pH 5
# Cyno Serum Albumin (CSA) [5] = target: T2, Cyno Serum Albumin (CSA); test: BIAcore (Affinity), pH5; pH 5
# [6] = target: T1, Human Serum Albumin (HSA); test: BIAcore (Affinity), pH7; pH 7
# Cyno Serum Albumin (CSA) [7] = target: T2, Cyno Serum Albumin (CSA); test: BIAcore (Affinity), pH7; pH 7
# Sequence of mouse serum albumin (MSA) (P07724 25-608 limits assumed): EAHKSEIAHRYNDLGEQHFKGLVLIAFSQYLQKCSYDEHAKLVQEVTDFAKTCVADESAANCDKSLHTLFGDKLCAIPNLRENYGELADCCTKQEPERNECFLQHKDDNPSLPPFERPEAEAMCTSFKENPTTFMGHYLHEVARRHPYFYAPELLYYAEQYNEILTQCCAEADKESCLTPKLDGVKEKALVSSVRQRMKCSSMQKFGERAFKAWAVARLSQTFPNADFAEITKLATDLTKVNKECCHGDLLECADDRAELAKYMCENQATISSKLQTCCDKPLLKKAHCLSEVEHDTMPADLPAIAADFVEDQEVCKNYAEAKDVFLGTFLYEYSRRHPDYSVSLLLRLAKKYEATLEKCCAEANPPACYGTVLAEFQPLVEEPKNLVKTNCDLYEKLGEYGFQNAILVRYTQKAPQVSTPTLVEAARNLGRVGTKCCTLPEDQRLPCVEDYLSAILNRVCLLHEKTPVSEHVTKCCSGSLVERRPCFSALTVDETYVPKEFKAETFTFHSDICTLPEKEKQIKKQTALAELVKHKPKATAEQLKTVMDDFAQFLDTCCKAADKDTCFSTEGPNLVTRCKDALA
Binder,binding result [1],Kd [2] [nM],koff [2] [s⁻¹],kon [2] [M⁻¹ s⁻¹],Kd (Cyno Serum Albumin (CSA) [3]) [nM],koff (Cyno Serum Albumin (CSA) [3]) [s⁻¹],kon (Cyno Serum Albumin (CSA) [3]) [M⁻¹ s⁻¹],Kd [4] [nM],koff [4] [s⁻¹],kon [4] [M⁻¹ s⁻¹],Kd (Cyno Serum Albumin (CSA) [5]) [nM],koff (Cyno Serum Albumin (CSA) [5]) [s⁻¹],kon (Cyno Serum Albumin (CSA) [5]) [M⁻¹ s⁻¹],Kd [6] [nM],koff [6] [s⁻¹],kon [6] [M⁻¹ s⁻¹],Kd (Cyno Serum Albumin (CSA) [7]) [nM],koff (Cyno Serum Albumin (CSA) [7]) [s⁻¹],kon (Cyno Serum Albumin (CSA) [7]) [M⁻¹ s⁻¹]
B1,no binding (tested: top concentration 1500 nM),4.83,0.00108,238000,102,0.0147,144000,,,,,,,,,,,,
B2,,,,,,,,13,0.00319,242000,99,0.0241,244000,6,0.00162,255000,67,0.0168,250000
B3,,,,,,,,12,,,96,,,3,,,33,,

# From patent publication US20210340233A1 (CRESCENDO BIOLOGICS, published 2021)
